Measurements: US20200140551A1 (GlaxoSmithKline, published 2020)
Where a chain is given by its changes, count along the chain named. Each block holds one binder with its values, some of them ahead of it.

Experiments:
human ICOS = target: T1, human ICOS (human, UniProt Q9Y6W8 21-140, limits assumed); test: Biacore (SPR), human ICOS; format not described
T1 sequence: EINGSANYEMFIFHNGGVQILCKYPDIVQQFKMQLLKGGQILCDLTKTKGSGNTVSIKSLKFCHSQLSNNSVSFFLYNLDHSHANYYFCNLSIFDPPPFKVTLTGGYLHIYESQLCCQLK

cynomolgus ICOS = target: T2, cynomolgus ICOS (cynomolgus, UniProt A0A2K5TQR6 21-140); test: Biacore (SPR), cyno ICOS; format not described
T2 construct: also called cyno ICOS; not shown: Carrier of the soluble construct, if any
T2 sequence: T1 sequence with H81R

Kd (human ICOS): 31 nM
Kd (cynomolgus ICOS): 23 nM
B1: murine anti-human ICOS mAb clone 88.2 (antibody, V domains shown)
VH: QVQLQQPGAELVRPGASVKLSCKASGYSFTSYWINWVKQRPGQGLEWIGNIYPSDSYTNYNQMFKDKATLTVDKSSNTAYMQLTSPTSEDSAVYYCTRWNLSYYFDNNYYLDYWGQGTTLTVSS
VL: QAVVTQESALTTSPGETVTLTCRSSTGAVTTSNYANWVQEKPDHLFTGLIGGTNNRAPGVPARFSGSLIGDKAALTITGAQTEDEAIYFCALWYNNHLVFGGGTKLTVL

Kd (human ICOS): 5.7 nM
Kd (cynomolgus ICOS): 4.46 nM
B2: murine anti-human ICOS mAb clone 422.2 (antibody, V domains shown)
VH: QVQLQQSGPELVRPGESVKISCMGSGYTFTDYAMHWVKQSHAKSLEWIGLISIYSDHTNYNQKFQGKATMTVDKSSSTAYMELARLTSEDSAIYYCGRNNYGNYGWYFDVWGAGTTVTVSS
VL: ENVLTQSPAIMSASPGEKVTMTCSASSSVSYMHWYQQKSITSPKLWIYDTSKLASGVPGRFSGSGSGNSYSLTISSMEAEDVATYYCFQGSGYPYTFGGGTKLEIKR
notes: also called hybridoma clone 422.2
